Experimental data as given in the RNAGym collection of RNA variant scans (doi:10.1073/pnas.2313332121).
This sample holds only a part of the variants without activity.

B1: TPR 5TU (parent)
chain: GGAUCUUCUCGAUCUAACAAAAAAGACAAAUCUGCCACAAAGCUUGAGAGCAUCUUCGGAUGCAGAGGCGGCAGCCUUCGGUGGCGCGAUAGCGCCAACGUUCUCAACUAUGACACGCAAAACGCGUGCUCCGUUGAAUGGAGUUUAUCAUG

Variants of: B1
Test: polymerase ribozyme fitness, log enrichment relative to wild type (log ratio); higher = more active; in vitro selection for triplet polymerase activity
How it was run: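 Fitness measures genotype enrichment against wild-type enrichment on a logarithmic scale, with inverse-variance-weighted averaging of replicates. The logarithm is base 2, and genotypes were kept only with ≥10 input reads and ≥1 read per output in Illumina sequencing. The sequenced libraries came from one triplicate in vitro selection round, including frozen incubation at −7 °C, of PCR-built, transcribed mutant libraries of each subunit of a heterodimeric triplet polymerase ribozyme.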

Variant	polymerase ribozyme fitness (log ratio)
A22G G59A	-0.246
A23G C27G A40U C75U G81C G94C U101A U109A	≤ -4.2
A23G A41U C76G G80A A89U G124U	≤ -4.2
A22U C32A G42A G48A A52G U148A	≤ -4.2
A22U A97G A122G	0.332
A22U A41U A60U A106U	-4.16
A23G G50C G84U C85G A150C	-3.98
A23U G42C C75U U82G G84U C96A	≤ -4.2
A22U A23G G50A G86A C116G U130G C131G	≤ -4.2
A23C G58A C87U A91U	≤ -4.2
A22U G50U C96G U145G	-0.544
A23U A24C C51U U53A A98U	≤ -4.2
A23C U44C A64C G92C A97U	≤ -4.2
A22U C54G C95U	-2.06
A22U C54U	0.174
A23C C43U U53G G81C C87A G143A	≤ -4.2
A22U C36A G83A U145A	≤ -4.2
A22U U56A G92A	-3.22
A23C A29C C38U C57G A64C G84U	≤ -4.2
A22U C51U A137G A147C	-2.48
A23G C38G C95U C114G	-3.85
A22G U31G C54U C96G A115G C123G A137C	≤ -4.2
A23G G92U	-3.31
A22U G86U A120U	-1.56

Variant	polymerase ribozyme fitness (log ratio)
A22U C93A	-2.34
A23U A37U A97U U111C	≤ -4.2
A22U A28G	-3.35
A23U C87A G133A	≤ -4.2
A23C C76U C87A	≤ -4.2
A23G G59A G68U A142U	≤ -4.2
A22U C38U C57U G94C G126U	-0.0445
A23C C36U A60C G86A A121U	≤ -4.2
A22U C75G	-3.65
A23U C93A A97G A113G G124U	≤ -4.2
A23C A37G U53A A66G G88U U130A U146A	≤ -4.2
A23G A40U A66C U109G U111G C149U	≤ -4.2
A23G A64G G81A C108A G124U G143U	≤ -4.2
A22U U144A	0.777
A22U A41G G81A C87U C99U A119G G152A	-2.3
A23G U33G G100C U148C	≤ -4.2
A23U G50A C132U G140C	≤ -4.2
A23G C76A	-2.49
A23U	-3.23
A23G	-1.78
A23C	-3.48
A22U G42C G80A A91G C95G A98U	≤ -4.2
A23C C27U A30G C93G U101A U104G A107U	≤ -4.2
A23U G25U A29U C43U G58U G86A A107G	≤ -4.2

Variant	polymerase ribozyme fitness (log ratio)
A23G C38U U61A	≤ -4.2
A23G G58U C108G U135G	≤ -4.2
A22U G133C	-1.46
A22U U134A	-2.01
A23U C36U C85A C96G A97U	≤ -4.2
A23G C27U C125A G143U	≤ -4.2
A22G G83A A91U G100U	≤ -4.2
A22U A29G G70A	≤ -4.2
A23U A26U C27U A41U C93U C95A	≤ -4.2
A23G G84U	-3.88
A22U C69G C75U C93U U101C U127A	≤ -4.2
A22U U45A G68A A122G G140U U146A	≤ -4.2
A22U C35U A47U G59U G67A C132A G136U	≤ -4.2
A23C C54U U55A G71A A122G	≤ -4.2
A23C A49G C93U U148C	≤ -4.2
A23U C96U	-4.1
A23U A64C G67A G81C	≤ -4.2
A23U A30G A41C A47G U53G U56A C75A C93U C108G G133C G136A	≤ -4.2
A23U G50A A60C A66U C85U C95G A122C	≤ -4.2
A23U G50C A122C G141C	≤ -4.2
A23G A52C A98U	-3.98
A22U G88C A147C	-4.19
A22U A28U C57U U77G C85G G92U	≤ -4.2
A23U A29C C51U G68U C72G G94C G136A A147C	≤ -4.2

Variant	polymerase ribozyme fitness (log ratio)
A22U U82A	0.472
A22U C57A C96G A97U C118G A119C	-2.85
A22U A73C G92U A110G U111C G141C	≤ -4.2
A22U C54U G92U A147U	0.944
A22U A52C G65A C132G G140U	-3.17
A23U G25C A52C U55A A122C	≤ -4.2
A22U A47U U53G U55A C57U G68A G86C C99U A138C U148G	≤ -4.2
A23U C43A C69G C99G U139A U144A	≤ -4.2
A22U A47U C96U U148A	-4.14
A23G C54A U55G G58A G59C	-4.08
A22U A40G G84A A119G	-2.75
A22U G81A A106C G128A U139C	-3.92
A22U A37C G83C C114G	-3.92
A23U G50C U139G	≤ -4.2
A22U C69A A91U	≤ -4.2
A23G G124C A147G A150G	≤ -4.2
A23C U44A U45A G74A A91G	≤ -4.2
A22U C54U U55A	0.0331
A23G C79G	≤ -4.2
A22U C32G U134C	≤ -4.2
A23C A30C G50A A66G C96A A98U G128C	≤ -4.2
A22U G46A C79G G80U G92A A150C	≤ -4.2
A22U G58A A60C U111A	≤ -4.2
A23U C76G	≤ -4.2

Variant	polymerase ribozyme fitness (log ratio)
A23U C27G A40G A47U G67A G83U G84A	≤ -4.2
A23C C32A U56A A60G C103A A110G G112C	≤ -4.2
A22U A40U G42C C75A U90G	≤ -4.2
A23G C57U	-2.27
A23C C43A C54U A73U C99G	≤ -4.2
A22U A47C C54G G58U	-0.551
A22U A30U C32A U78G G88A G117U U139G	≤ -4.2
A23G C93U	-3.77
A23U A26U C51A A66U C85U U148C	≤ -4.2
A22U U55A A115C C123U U130G	-2.84
A23G A40C G81A U145C	-3.98
A22U U55A	-0.43
A23G C114U	-3.53
A23G U44A U61A G70U C76G C93G G143C	≤ -4.2
A23G U130C A138U	-4.2
A23C A26U U33G C76A U101G U145G	≤ -4.2
A22U U56A G84A G136C	-3.75
A22U C32A C36A C57U C96G C116U U139G	≤ -4.2
A23C C38A C51U U55C A73G G92U C131U A138C	≤ -4.2
A23C G88U U144G	≤ -4.2
A23G A29U U61G C99U	≤ -4.2
A22U U148A	-2.76
A23U G58C G88U G136A	≤ -4.2
A23G A39U A47C U53G G86C A106G	≤ -4.2

Variant	polymerase ribozyme fitness (log ratio)
A23G C85A A98C	-3.17
A23C G42U A137U	≤ -4.2
A23U C85G G141A	≤ -4.2
A22U U56A C93G A98G C108A C114G U151A	≤ -4.2
A22U A49U	-0.913
A22U C57G G58A C114G	-2.5
A23G G25C G50C C57A G58U C85U U144C	≤ -4.2
A22G U130A	-1.59
A23G A91U G140C	≤ -4.2
A23G A28G A39U A40U U44A U61A U78G C85U U151G	≤ -4.2
A23C C35G G58A C95A C99A C149U	≤ -4.2
A23G A41C U90G A110G	≤ -4.2
A23G A52G C57U C95A C96G U102G A107G G141A	≤ -4.2
A22U G92A C95A C105U	-3.63
A23G G50C G86C A89G G92U A97U G141C	≤ -4.2
A22U C85A	-0.394
A22U U31C G81C A89C	1.01
A22U U102G	-2.64
A23C C95U	-4.12
A23C C114G	≤ -4.2
A23U A64C G68C	≤ -4.2
A23U G68C C76G G80C A89U U148G	≤ -4.2
A22U C96A	-0.026
A22U C96G	-0.148

Variant	polymerase ribozyme fitness (log ratio)
A22U C123G	-0.0344
A23U A26U A41U G50A G65C A91C C103G G128U	≤ -4.2
A23G C35A A142G	-3.78
A23C C87G	≤ -4.2
A23C C87U	-3.89
A23U A91G	≤ -4.2
A23U A52G C85U A89G A106G G141U U148G	≤ -4.2
A22U G58C G92U G124C	-0.925
A22U C114A	-3.29
A23G A30G A52U C116U C132U	≤ -4.2
A23G C87U	-3.14
A23C A39C C76A A97G G143C	-3.82
A22G G50U U56G G58U C76U A122G	-4.16
A23C C96G	-3.81
A23G A49U C51U U53A A60G U61A G71U A73G C85A C87A C105G	≤ -4.2
A22U A97G	0.0508
A23C G62C C85G U134A U148C	≤ -4.2
A23U A29U C79G G81U C93G C149U	≤ -4.2
A23G G62A A73U C76G G88A C105U A106G	≤ -4.2
A23C A28C G46A U55A C96U	≤ -4.2
A22U U31G C54G C85U U146C	-0.611
A23C G25A U55A U61G G68A G92U A97U G124A G128C	≤ -4.2
A22U U61A C96U	-0.569
